Publication PMC3494861 (The Journal of Cell Biology, 2012)
One block for each molecule: values may come before it.

What was measured:
[1] = biological target: Tob55 (endogenous; long, intermediate and short isoforms) (N. crassa); assay: cross-linking
[2] = biological target: His9-Tob38 (Tob38 with a 9x His tag, N. crassa strain Tob38HT) (N. crassa) (UniProt V5IPB4); assay: isotope dilution mass spectrometry
[3] = biological target: His9-Tob37 (Tob37 with a 9x His tag, N. crassa strain Tob37HT) (N. crassa) (UniProt Q7SFC4); assay: isotope dilution mass spectrometry
[4] = biological target: His9-Tob55, short isoform (N. crassa strain Tob55 short HT) (N. crassa); assay: cryo-EM structure
[5] = biological target: T1, His9-Tob38 (Tob38 with a 9x His tag, N. crassa strain Tob38HT) (N. crassa, UniProt V5IPB4 1-340); assay: isotope dilution mass spectrometry
T1 sequence (looked up): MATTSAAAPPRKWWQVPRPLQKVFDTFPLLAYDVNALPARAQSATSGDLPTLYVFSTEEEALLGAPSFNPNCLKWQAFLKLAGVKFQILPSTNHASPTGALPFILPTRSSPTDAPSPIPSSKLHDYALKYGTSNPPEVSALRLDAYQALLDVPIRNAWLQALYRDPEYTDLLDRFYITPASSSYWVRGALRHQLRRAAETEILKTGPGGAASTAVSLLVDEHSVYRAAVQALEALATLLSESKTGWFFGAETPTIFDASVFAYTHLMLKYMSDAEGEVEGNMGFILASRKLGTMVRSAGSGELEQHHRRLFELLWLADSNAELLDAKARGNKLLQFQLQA

[6] = biological target: His9-Tob55, short isoform (N. crassa strain Tob55 short HT) (N. crassa); assay: isotope dilution mass spectrometry
[7] = biological target: T2, His9-Tob37 (Tob37 with a 9x His tag, N. crassa strain Tob37HT) (N. crassa, UniProt Q7SFC4 1-442); assay: isotope dilution mass spectrometry
T2 sequence (looked up): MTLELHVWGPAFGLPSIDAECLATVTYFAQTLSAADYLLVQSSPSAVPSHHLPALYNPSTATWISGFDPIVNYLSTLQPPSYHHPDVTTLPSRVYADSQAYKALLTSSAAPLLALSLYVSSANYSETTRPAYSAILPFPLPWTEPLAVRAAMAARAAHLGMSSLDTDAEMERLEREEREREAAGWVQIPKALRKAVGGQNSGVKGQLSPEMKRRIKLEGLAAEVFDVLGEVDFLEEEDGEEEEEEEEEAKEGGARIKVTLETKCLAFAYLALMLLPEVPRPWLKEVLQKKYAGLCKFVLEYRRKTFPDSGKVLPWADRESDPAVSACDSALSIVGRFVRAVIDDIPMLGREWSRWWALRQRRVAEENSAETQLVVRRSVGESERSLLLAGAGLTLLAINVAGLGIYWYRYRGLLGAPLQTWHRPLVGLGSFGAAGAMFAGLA

[8] = biological target: T1, His9-Tob38 (Tob38 with a 9x His tag, N. …); assay: native gel or EMSA
[9] = biological target: T2, His9-Tob37 (Tob37 with a 9x His tag, N. …); assay: native gel or EMSA

stoichiometry N [1]: 2 | stoichiometry N [2]: 1 | stoichiometry N [3]: 1
Molecule: Tob55 (endogenous; long, intermediate and short isoforms) (natural protein)

stoichiometry N [4]: 2
Molecule: His9-Tob55, short isoform (N. crassa strain Tob55 short HT) (natural protein)

stoichiometry N [5]: 1 | stoichiometry N [6]: 1
B1: Tob37 (endogenous) (natural protein, N. crassa, UniProt Q7SFC4 1-442, looked up)
chain: T2 sequence (looked up)

stoichiometry N [7]: 1 | stoichiometry N [6]: 1
B2: Tob38 (endogenous) (natural protein, N. crassa, UniProt V5IPB4 1-340, looked up)
chain: T1 sequence (looked up)

stoichiometry N [8]: 1 | stoichiometry N [9]: 1
B3: Mdm10 (endogenous) (natural protein, N. crassa, UniProt Q7SBE0 1-480, looked up)
chain: MREFMNYITNAFYGATGWNEDNKYNELNATSRELIDFPLPRGLRLTLSSLATPHFATSYQLGSVGVVDGSISYLHSSIPLTHIAAQSDKIPLPALLRCYRRLHDLRSPGQQHYILDADPLSGLPPPPQSARALLGAASDAAVAGGALDGGNTDQDLGIYTHSLLYGRLYLPKSLLEGMIIKRFTQALQVQVRAVSEQSLRNGGTILGLVQYDKGKYGLEGLYSTDGGLLGFRGLYNFGGDASSSTCDPWTPTPGENNNNNNNNNNNNNGNAQAGEKERIYGRFSVGGELYYGTLNKSGGMSLGARFATLPAHRGTPLTATLTINPLMGNINATYALLAREYCSLATRVDFNVYSYESEWAVGMELWSNRRPAGFLLGASPSNDFEPEPHPPRKKERSFQAKMEWRLDDPEPEPEPQPTPKTRKNDEYKGVLKARLDNNLRMGLLWEGRAKSLIFSIGTGIDLHKLGEPFRSLGLEVQYSS
